The chains are these.
B1: EBOV-GP-G6-neg+ (VHH)
VHH: DVQLVESGGGLVQAGGSLRISCAASGGALSDYNMGWFRQAPGKEREFVCVVTWSGGSTRYADSVNGRFTCSRDNAKNTVYLQMNSLKPEDTAVYYCAAAPLTPFQSLGDMKAYNYWGQGTQVTVSS
notes: also called Bt-sdAb-neg+
B2: EBOV-GP-H7-neg+ (VHH)
VHH: DVQLVESGGGLVQAGGSLRLSCAASSGTFSSYTMGWFRQAPGKERELVCRLSQSLTTLYADSVKGRFTCSRDNAENTVYLQMNSLKPEDTGVYYCAAHPGTYGSAWLISPHDYAYWGQGTQVTVSS
notes: also called EBOV-H7-neg+; Bt-sdAb-neg+
B3: EBOV-GP-A8-neg+ (VHH)
VHH: EVQLVESGGGLVQAGDSLQLSCAAPGRPVRTYTMGWFRQAPGKEREFVCANNWRGTRYAGSVRGRFSCSRDNSKNTVYLQMNSLKPEDTAVYYCACAVTADLLLSGNYFRGDDYDYWGQGTQVTVSS
B4: EBOV-GP-A8-fneg+ (VHH)
VHH: B3 VHH with C96S
notes: also called Bt-sdAb-neg+
B5: R2A1 (VHH)
VHH: EVQLQASGGGLVQARGSLQLSCAAPGRPVRTYTMGWFRQAPGKEREFVAANNWRGTRYAGSVRGRFSISRDNSKNTVYLQMNSLKPEDTAVYYCACAVTADLLLSGNYFRGDDYDYWGQGTQVTVS
B6: R2E4 (VHH)
VHH: B5 VHH with R15G
B7: R3C11 (VHH)
VHH: B5 VHH with E1D, R15G, K43E, I68V, F109Y, Q119L
B8: R3H8 (VHH)
VHH: B5 VHH with R15G, R27H
B9: R3G10 (VHH)
VHH: B5 VHH with L11S, R15G, I68T
B10: R2E6 (VHH)
VHH: B5 VHH with E1D, R15G, K43M, Y58H
B11: R2B4 (VHH)
VHH: B5 VHH with R15G, V98E
B12: R2H11 (VHH)
VHH: EVQLQASGGGLVQAGGSTRLSCAGSGSIFSINAMGWYRQTPEKQRELVATISSSGSTKYGDSVKGRFTISRDNAKNTVYLQMNSLKPEDTAVYYCNTQTAGPVADWGTSHYDYWGQGVQVTVS
B13: R3F12 (VHH)
VHH: DVQLQASGGGLVQAGGSLRLSCAASSGTFSSYTMGWFRQAPGKERELVARLSQSLTTLYADSVKGRFTISRDNAENTVYLQMNSLKPEDTGVYYCAAHPGTYGSAWLISPHDYAYWGQGAQVTVS
B14: R2H1 (VHH)
VHH: EVLLQASGGGLVQPGGSLRLSCAASGLIFSINVMGWYRQTPGKQRELVASISRDDSTKYADSVKGRFTISRDNAKNTVYLQMNSLKPEDTAVYYCNTQTEGPVADWGTSHYDYWGQGTQVTVS
B15: R2D10 (VHH)
VHH: EVQLQASGGGLVEPGGPLRLSCAVSGINFNINHWGWYRQAPGKQREWVATIAIGGATDYADSLKGRFTISRDNMKNTVYLQMNSLRPEDTAVYYCNGVGSKWSDRWGQGTQVTVS
B16: R2G2 (VHH)
VHH: B15 VHH with P17S
B17: R2C8 (VHH)
VHH: B15 VHH with P17S, G55S, T68A, G107D
B18: R3F8 (VHH)
VHH: B15 VHH with P17S, L63V
B19: R3B7 (VHH)
VHH: DVQLQASGGGLVQTGGSLRLACAGSGRSFNNYGMGWFRQAPGKERQFVAAISGNDHTTHYSDSVKGRFTISRDNAKSTVYLQMNSLKPEDTAVYYCAADRLGSFFFPRASPSDYGYWGQGTQVTVS
B20: EBOV-GP-D1 (VHH)
VHH: EVQLQASGGGSVPPGGSLRLSCTASLRAFSTYTMGWFRQAPGKEREFVAASNWRGTDFHDSVRGRFIISRDNTEKTVDLQMNSLKPEDTAIYYCAADGSTWLKRSDYSYWGQGTQVTVS
B21: EBOV-GP-B5 (VHH)
VHH: B20 VHH with S11L, P13Q, P14A, R63K, E74K
B22: EBOV-GP-A8 (VHH)
VHH: B5 VHH with V12A, R15G
notes: also called Bt-EBOV-GP-A8
B23: EBOV-GP-C12 (VHH)
VHH: EVQLQASGGGLVQPGGSLRLSCTASGSIFSINAMGWYRQTPRKERELVAAISEGGSTKYGDSVKGRFTISRDFAKNTQMVYLQMNSLKAEDTAVYYCKAQTEGPIADWGTSQYEYWGQGTQVTVS
B24: EBOV-GP-E7 (VHH)
VHH: B12 VHH with A14P, G15R, T18L, G24A, P102L
B25: EBOV-GP-H7 (VHH)
VHH: B13 VHH with A120T
B26: EBOV-GP-G6 (VHH)
VHH: DVQLQASGGGLVQAGGSLRISCAASGGALSDYNMGWFRQAPGKEREFVAVVTWSGGSTRYADSVNGRFTISRDNAKNTVYLQMNSLKPEDTAVYYCAAAPLTPFQSLGDMKAYNYWGQGTQVTVS
B27: EBOV-GP-B11 (VHH)
VHH: B19 VHH with D1E, S77T

Where a chain is given by its changes, count along the chain named.

One assay addresses T1, Recombinant EBOV GP without transmembrane domain (Zaire ebolavirus, strain of GP not …, UniProt Q05320).
T1 construct: also called recombinant GP; EBOV rGPdTM; source: bought: IBT Bioservices
The experiment in a line: SPR. Conditions: both partners purified.
On to B1, for which the Kd stood at 44 nM, the koff was determined as 0.00015 s⁻¹ and the kon is 3500 M⁻¹ s⁻¹.

For B2, the Kd stood at 40 nM, the koff came out at 0.0014 s⁻¹ and the kon amounted to 35000 M⁻¹ s⁻¹.

As for B3, the Kd was determined as 0.95 nM, the koff amounted to 5.8e-05 s⁻¹ and the on-rate constant (kon) came to 61000 M⁻¹ s⁻¹.

Consider B4, for which the Kd is 0.69 nM, the koff is 9.1e-05 s⁻¹ and the on-rate constant (kon) was 130000 M⁻¹ s⁻¹.

For the next assay, the target named is Recombinant EBOV GP without transmembrane domain (Zaire ebolavirus, strain of GP not …, UniProt Q05320).
Experiment: not given
Details: not given
B5: the binding result was “binds”.

Regarding B6, the binding result is “binds”.

Turning to B7, the binding result is recorded as “binds”.

On to B8, for which the binding result is “binds”.

Regarding B9, the binding result was “binds”.

In the case of B10, the binding result is reported as “binds”.

Consider B11, for which the binding result is reported as “binds”.

For the molecule B12, the binding result is on record as “binds”.

Take B13: the binding result is listed as “binds”.

With B14, the binding result is “binds”.

Regarding B15, the binding result is on record as “binds”.

For the molecule B16, the binding result is “binds”.

As to B17, the binding result is “binds”.

For B18, the binding result is “binds”.

Take B19: the binding result is “binds”.

A further assay deals with T1, Recombinant EBOV GP without …. Kind of assay: SPR. Conditions: both partners purified. This is another data set of the same source.
In the case of B20, the Kd came out at 11 nM, the koff worked out at 0.00033 s⁻¹ and the kon turned out to be 30000 M⁻¹ s⁻¹.

For B21, the Kd is 11 nM, the koff is 0.00037 s⁻¹ and the kon was determined as 34000 M⁻¹ s⁻¹.

Take B22: the Kd was determined as 2.3 nM, the koff amounted to 7.2e-05 s⁻¹ and the kon was 31000 M⁻¹ s⁻¹.

For the molecule B23, the Kd was 26.8 nM, the off-rate (koff) came out at 8.71e-05 s⁻¹ and the kon came out at 3280 M⁻¹ s⁻¹.

Regarding B24, the dissociation constant (Kd) came out at 34 nM, the koff stood at 0.00011 s⁻¹ and the kon stood at 3500 M⁻¹ s⁻¹.

On to B25, for which the Kd worked out at 17 nM, the koff came to 0.0003 s⁻¹ and the kon amounted to 17000 M⁻¹ s⁻¹.

Regarding B26, the Kd was 2 nM, the koff was 0.00015 s⁻¹ and the on-rate constant (kon) is 70000 M⁻¹ s⁻¹.

As for B27, the dissociation constant (Kd) was found to be 35.9 nM, the koff was found to be 0.00321 s⁻¹ and the kon worked out at 89800 M⁻¹ s⁻¹.

Values taken from paper PMC5726015, “Selection, characterization, and thermal stabilization of llama single domain antibodies towards Ebola virus glycoprotein” (Microbial Cell Factories, 2017).
